Reference: patent publication US20210246507A1

Biological target: human C3b (human) (UniProt P01024)
Experiment: SPR (Biacore 3000), human C3b amine-coupled to CM5 chip, FHR-4 injected at 1 to 100 µg/ml, 1:1 Langmuir fit

Chain of UniProt P01024 (P01024 23-667 limits assumed, chain 1 of 2): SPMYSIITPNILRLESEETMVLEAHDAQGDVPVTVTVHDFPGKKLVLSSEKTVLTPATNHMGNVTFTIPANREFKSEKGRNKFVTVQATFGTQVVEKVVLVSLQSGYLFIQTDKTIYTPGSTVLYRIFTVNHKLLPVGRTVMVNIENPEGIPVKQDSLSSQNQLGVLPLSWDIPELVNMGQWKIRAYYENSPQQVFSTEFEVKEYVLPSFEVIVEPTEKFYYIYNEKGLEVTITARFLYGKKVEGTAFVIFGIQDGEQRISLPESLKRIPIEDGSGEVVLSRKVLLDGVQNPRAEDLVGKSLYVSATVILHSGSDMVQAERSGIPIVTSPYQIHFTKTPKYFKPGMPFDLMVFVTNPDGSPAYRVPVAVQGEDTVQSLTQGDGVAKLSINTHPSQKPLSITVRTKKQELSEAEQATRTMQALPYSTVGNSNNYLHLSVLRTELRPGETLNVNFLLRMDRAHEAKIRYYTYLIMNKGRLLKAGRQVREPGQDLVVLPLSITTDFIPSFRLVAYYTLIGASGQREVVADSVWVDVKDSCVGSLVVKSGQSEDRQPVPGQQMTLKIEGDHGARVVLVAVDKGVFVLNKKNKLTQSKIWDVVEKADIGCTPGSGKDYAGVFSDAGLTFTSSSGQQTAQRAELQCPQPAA
Chain of UniProt P01024 (P01024 749-1663 limits assumed, chain 2 of 2): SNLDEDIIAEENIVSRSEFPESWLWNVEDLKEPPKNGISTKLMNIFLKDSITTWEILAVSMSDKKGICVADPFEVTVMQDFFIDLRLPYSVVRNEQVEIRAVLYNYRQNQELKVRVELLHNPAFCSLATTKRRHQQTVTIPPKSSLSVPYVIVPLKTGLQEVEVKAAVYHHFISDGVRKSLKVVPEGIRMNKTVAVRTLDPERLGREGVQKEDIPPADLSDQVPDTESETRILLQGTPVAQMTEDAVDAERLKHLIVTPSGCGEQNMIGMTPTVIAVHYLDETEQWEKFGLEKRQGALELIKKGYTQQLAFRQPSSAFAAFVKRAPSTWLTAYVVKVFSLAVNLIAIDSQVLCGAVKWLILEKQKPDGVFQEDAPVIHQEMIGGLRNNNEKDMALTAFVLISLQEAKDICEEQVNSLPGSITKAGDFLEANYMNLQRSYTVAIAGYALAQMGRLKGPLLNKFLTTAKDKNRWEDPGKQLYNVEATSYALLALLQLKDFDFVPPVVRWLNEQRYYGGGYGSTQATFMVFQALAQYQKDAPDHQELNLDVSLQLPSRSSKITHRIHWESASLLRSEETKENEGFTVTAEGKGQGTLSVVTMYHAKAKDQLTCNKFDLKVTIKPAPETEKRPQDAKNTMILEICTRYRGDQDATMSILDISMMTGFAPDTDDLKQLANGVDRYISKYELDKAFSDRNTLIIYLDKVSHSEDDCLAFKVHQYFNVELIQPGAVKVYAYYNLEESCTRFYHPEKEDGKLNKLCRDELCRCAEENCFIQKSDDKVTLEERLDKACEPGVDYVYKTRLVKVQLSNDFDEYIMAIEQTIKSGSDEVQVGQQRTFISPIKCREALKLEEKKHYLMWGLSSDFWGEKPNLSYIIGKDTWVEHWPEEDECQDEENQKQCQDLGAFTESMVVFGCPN

complement factor H-related protein 4 (FHR-4) (from UniProt Q92496 20-578)
Kd: 1100 nM
